From the supplement of paper PMC11780869

Tested on: Bacillus subtilis
Test: cleaved RNA product abundance (RNA/gDNA barcode ratio) relative to median wild-type variant (ratio to wild type); higher = more accumulation of the downstream cleavage product
How it was run: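 Cleaved product abundance is expressed as the RNA:gDNA barcode ratio per construct, scaled to the median construct carrying the unmutated site. The constructs were barcoded, mutagenized RNase Y cleavage-site windows in truncated aprE or tetM reporter mRNAs integrated into the B. subtilis chromosome. Cultures grew in LB at 37°C from OD600 0.0003 to 0.3 before cleaved RNA was gel-selected and barcode-sequenced.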

[1] = experiment (reporter, strain, medium): exp 8a: truncated aprE reporter, strain BJT201 with 2% xylose (RNase J1 expressed), cleavage site: glnRA (positions -5 to +31 mutated)
[2] = experiment (reporter, strain, medium): exp 4a: truncated aprE reporter, strain BJT201 with 2% xylose (RNase J1 expressed), cleavage site: cggR-gapA (positions -7 to +36 mutated)
[3] = experiment (reporter, strain, medium): exp 2b: truncated aprE reporter, strain BJT200, cleavage site: cggR-gapA (positions -7 to +36 mutated)
[4] = experiment (reporter, strain, medium): exp 6: tetM reporter, strain 168, cleavage site: cggR-gapA (positions -7 to +36 mutated)

Row | Sequence | cleaved RNA product abundance [1] | cleaved RNA product abundance [2] | further results
1 | CGACATGTCCCGCTTCTTTCATTATTCCGTTAGCAACGGTTTTGCTATATACATTTACCTTTTAAGAGGAGGAAT | 0.56 | – | –
2 | ACAGACGAAGGAGCCGCAAAGTAGTTATTAAGGGATGAACAATCCCTCAATATAAATATCTCTCACTTATTTAAA | – | 0.763 | –
3 | ACAGACGAAGGAGCCGCAAAGAAGTTATTAAGAGATGAATAATCCCTCAATATAAATTTCTCTCACTTATTTAAA | – | 0.164 | –
4 | ACAGACGAAGGAGCCGCAAAGAAGTTAATAAGGGATGAATAATCCCACAATATAAATATCTCTCACTTATTTAAA | – | 0.253 | cleaved RNA product abundance [3]: 0.17
5 | CGACATGTCCCGCTTCTTTCATTAATCCGTGAGCAACTGTTTTGCTATATACTTTTACCTTTTAAGAGGAGGAAT | 0.154 | – | –
6 | CGACATGTCCCGCTTCTTTCATTAATCCGTTAGCAACTGTTTTGCTATATACACTTAACTTTTAAGAGGAGGAAT | 0.785 | – | –
7 | ACAGACGAAGGAGCCGCAAAGAAGTTATTACGGGATAAATAATCCCTCAATATAAATATCTCTCACTTATTTAAA | – | 0.416 | –
8 | ACAGACGAAGGAGCCGCAAAGAAGTTATTAAGGGATGAAAAATCCCTCACTATAAATATCTCTCACTTATTTAAA | – | – | cleaved RNA product abundance [3]: 0.161
9 | ACAGACGAAGGAGCCGCAAAGAAGTAATTAAGGGATGAATAATCCCTCAATATAAATAGCTCTCACTTATTTAAA | – | 0.15 | –
10 | CGACATGTCCCGCTTCTTTCATTAATCAGTAAGCAACTGTTTTGCTATATACATTTACCTTTTAAGAGGAGGAAT | 0.489 | – | –
11 | CGACATGTCCCGCTTCTTTCATTAATACGTTAGCAACTGTTTTGCTATATACGTTTACCTTTTAAGAGGAGGAAT | 0.284 | – | –
12 | ACAGACGAAGGAGCCGCAAAGAAGTTATTAAGTGATGAATAATCCCTCCATATAAATATCTCTCACTTATTTAAA | – | 0.104 | –
13 | CGACATGTCCCGCTTCTTTCATTAATCCGTTAGCAACTGTTTTGCTAAATACATTTAACTTTTAAGAGGAGGAAT | 0.445 | – | –
14 | ACAGACGAAGGAGCCGCAACGAAGTTATTAAGGAATGAATAATCCCTCAATATAAATATCTCTCACTTATTTAAA | – | 0.126 | cleaved RNA product abundance [3]: 0.116
15 | ACAGACGAAGGAGCCGCAAAGAAGTCATTAAGGTATGAATAATCCCTCAATATAAATATCTCTCACTTATTTAAA | – | – | cleaved RNA product abundance [3]: 0.0941
16 | CGACATGTCCCGCTTCTTTCATTAATCCGTTCGCAACTGTTTTGATATATACATTTACCTTTTAAGAGGAGGAAT | 0.334 | – | –
17 | ACAGACGAAGGAGCCGCGAAGAATTTATTAAGGGATGAATAATCCCTCAATATAAATATCTCTCACTTATTTAAA | – | 0.561 | –
18 | ACAGACGAAGGAGCCGCAAAGAAGTTATTAACGGATGAATAATCCCGCAATATAAATATCTCTCACTTATTTAAA | – | 0.392 | –
19 | ACAGACGAAGGAGCCGCAAAGAAGATATTAAGGGATGAATAATCCCTAAATATAAATATCTCTCACTTATTTAAA | – | 0.665 | cleaved RNA product abundance [3]: 0.702; cleaved RNA product abundance [4]: 0.475
20 | ACAGACGAAGGAGCCGCAAAGAAGTTATTAAGGGATGAATGATCCCTAAATATAAATATCTCTCACTTATTTAAA | – | 0.488 | –
21 | CGACATGTCCCGCTTCTTTCATTAATCCGTTAACAACTGTTTTGCTGTATACATTTACCTTTTAAGAGGAGGAAT | 0.166 | – | –

Row | Sequence | cleaved RNA product abundance [1] | cleaved RNA product abundance [2] | further results
22 | ACAGACGAAGGAGCCGCAAAGAAGTTATTAAGCGATGAATAATCACTCAATATAAATATCTCTCACTTATTTAAA | – | 0.101 | –
23 | ACAGACGAAGGAGCCGCAAAGAAGTTATTAAGGGTTGAATAATCCCTCAATATAAATTTCTCTCACTTATTTAAA | – | 0.436 | –
24 | ACAGACGAAGGAGCCGCAAAGAAGTTATGAAGGGATGAATAATCCCACAATATAAATATCTCTCACTTATTTAAA | – | – | cleaved RNA product abundance [3]: 0.138
25 | ACAGACGAAGGAGCCGCAAAGAAGTTATTAAGGTATGAATAATCCCTCAATCTAAATATCTCTCACTTATTTAAA | – | 0.0855 | –
26 | CGACATGTCCCGCTTCTTTCATTAATCCGTTAGCAAATGATTTGCTATATACATTTACCTTTTAAGAGGAGGAAT | 1.28 | – | –
27 | CGACATGTCCCGCTTCTTTCATTAATCCGTTAGCAACTGCTTTGCTATATACATTTACCTTTTAAGAGGAGGAAT | 0.307 | – | –
28 | ACAGACGAAGGAGCCGCAAAGAAATTATTAAAAGATGAATAATCCCTCAATATAAATATCTCTCACTTATTTAAA | – | 0.083 | –
29 | ACAGACGAAGGAGCCGCAAAGAAGTTATTAAGGGATAAATAATCCCTCAATATAAATTTCTCTCACTTATTTAAA | – | 0.368 | –
30 | ACAGACGAAGGAGCCGCAAAGAAGTTATTAAGCGATGAATAATCCCTGAATATAAATATCTCTCACTTATTTAAA | – | 0.072 | –
31 | CGACATGTCCCGCTTCTTTCATTACTCCGTTAGCAACTTTTTTGCTATATACATTTACCTTTTAAGAGGAGGAAT | 2.09 | – | –
32 | CGACATGTCCCGCTTCTTTCATTAATCCGTTAGCAAATGTTTTGCTATACACATTTACCTTTTAAGAGGAGGAAT | 0.444 | – | –
33 | ACAGACGAAGGAGCCGCAAAGAAGTTATTAAGGGATGAGTAATCCCTCCATATAAATATCTCTCACTTATTTAAA | – | 0.164 | –
34 | CGACATGTCCCGCTTCTTTCATTAATCCGTTAACAATTGTTTTGCTATATACATTTACCTTTTAAGAGGAGGAAT | 0.241 | – | –
35 | ACAGACGAAGGAGCCGCAAAGAAGTTATTAAGGGATGAATAATCCCTCAATAAAAATATCTCTCACTTATTTAAA | – | 0.147 | cleaved RNA product abundance [3]: 0.172; cleaved RNA product abundance [4]: 0.28
36 | CGACATGTCCCGCTTCTTTCATTAATCCGTCAGCAACTGTTTTGCTATATACATTTAACTTTTAAGAGGAGGAAT | 0.483 | – | –
37 | ACAGACGAAGGAGCCGCAAAGAAGTTACTAAGGGATGAATAAACCCTCAATATAAATATCTCTCACTTATTTAAA | – | 0.14 | –
38 | ACAGACGAAGGAGCCGCAAAGAAGATATTAAGGGATGAATAATCCCTCACTATAAATATCTCTCACTTATTTAAA | – | – | cleaved RNA product abundance [3]: 0.149
39 | ACAGACGAAGGAGCCGCTAAGAAGTTATTAAGGGATGAATAATGCCTCAATATAAATATCTCTCACTTATTTAAA | – | 0.154 | –
40 | ACAGACGAAGGAGCCGCAAAGAAGTTATTAAGGGATGAATAATCCCTCCCTATAAATATCTCTCACTTATTTAAA | – | 0.212 | –
41 | ACAGACGAAGGAGCCGCAAAGAAGTTATTAAGGGATGAATAATCCCTCAATAAAAATGTCTCTCACTTATTTAAA | – | 0.0307 | –
42 | CGACATGTCCCGCTTCTTTCATTAATCCGTTAGCAACTGTTTTGCTCTATACATTTACCTTTTAAGAGGAGGAAT | 0.265 | – | –

Row | Sequence | cleaved RNA product abundance [1] | cleaved RNA product abundance [2] | further results
43 | CGACATGTCCCGCTTCTTTCATTAATCCGTTAGCAACTGTTTTACTATATACATCTACCTTTTAAGAGGAGGAAT | 0.506 | – | –
44 | ACAGACGAAGGAGCCGCAAAGAAGTTTTTAAGGGATGAATAATGCCTCAATATAAATATCTCTCACTTATTTAAA | – | 0.17 | cleaved RNA product abundance [3]: 0.121
45 | ACAGACGAAGGAGCCGCAAAGAATTTATTAAAGGATGAATAATCCCTCAATATAAATATCTCTCACTTATTTAAA | – | 0.213 | cleaved RNA product abundance [3]: 0.171
46 | ACAGACGAAGGAGCCGCAAAGAAGTTGTTAAGGGATGAATAATCCCTCAATATAAATATCTCTCACTTATTTAAA | – | 0.453 | cleaved RNA product abundance [3]: 0.357; cleaved RNA product abundance [4]: 0.537
47 | ACAGACGAAGGAGCCGCACAGAAGTAATTAAGGGATGAATAATCCCTCAATATAAATATCTCTCACTTATTTAAA | – | 0.391 | –
48 | ACAGACGAAGGAGCCGCACAGAAGTTATTAAGGGATGAATAATCCCTCAAAATAAATATCTCTCACTTATTTAAA | – | 0.337 | –
49 | ACAGACGAAGGAGCCGCAAAGAAGTTATTAAGGGATTAATAATCCCTCAATATAATTATCTCTCACTTATTTAAA | – | 0.43 | –
50 | CGACATGTCCCGCTTCTTTCATTAATCCGTTAGCACCTGTTTTGCTATATATATTTACCTTTTAAGAGGAGGAAT | 1.44 | – | –
51 | ACAGACGAAGGAGCCGCAAAGAAGTTATTAAGGAATGATTAATCCCTCAATATAAATATCTCTCACTTATTTAAA | – | 0.11 | cleaved RNA product abundance [3]: 0.115
52 | ACAGACGAAGGAGCCGCAACGAAGTTATTAAGGGATGAATAATCCCTCACTATAAATATCTCTCACTTATTTAAA | – | 0.435 | –
53 | CGACATGTCCCGCTTCTTTCATTAATCAGTTAGCAACTGTTTTGCTATATACATTTACTTTTTAAGAGGAGGAAT | 0.903 | – | –
54 | CGACATGTCCCGCTTCTTTCATTATTCTGTTAGCAACTGTTTTGCTATATACAGTTACCTTTTAAGAGGAGGAAT | 0.717 | – | –
55 | ACAGACGAAGGAGCCGCAAAGAAGTAATTAAGGGATGAATAATCCCTCCATATAAATATCTCTCACTTATTTAAA | – | 0.0749 | –
56 | ACAGACGAAGGAGCCGCAAAGAAGTTATTAAGGGATGAATACTACCTCAATATAAATATCTCTCACTTATTTAAA | – | 0.168 | cleaved RNA product abundance [3]: 0.124
57 | ACAGACGAAGGAGCCGCAAAAAAGTTATTAAGGGATGAATAATCCCTCAGTATAAATATCTCTCACTTATTTAAA | – | 0.42 | cleaved RNA product abundance [3]: 0.266
58 | ACAGACGAAGGAGCCGCAAAGAAGTTATTAGGGGATGAATAATCCCTGAATATAAATATCTCTCACTTATTTAAA | – | 0.371 | –
59 | ACAGACGAAGGAGCCGCAAACACGTTATTAAGGGATGAATAATCCCTCAATATAAATATCTCTCACTTATTTAAA | – | 1.21 | –
60 | CGACATGTCCCGCTTCTTTCATTAATCCGTTAGCAACTGTTTTGATATATACACTTACCTTTTAAGAGGAGGAAT | 0.313 | – | –
61 | CGACATGTCCCGCTTCTTTCATTAATCCGTTAGCAACTGTTGTGCAATATACATTTACCTTTTAAGAGGAGGAAT | 0.249 | – | –
